# The supplement of paper PMC6757056
# ± gives the standard deviation of the averaged measurements.
# B1: library; a variant is named by its letters at N, in order (parent)
# chain: GCUGUCACCGGUGCUUGGUACGUUAUAUUCAGCCGGUCUGAUGAGUCUNNNNNNAGACGAAACAGC
# Columns and labels:
# [1] = variants of: B1; assay: normalized RNA/DNA level without ligand (relative to sTRSVctl = 100) (log10 (% of sTRSVctl)); HEK293T overexpressing SLC46A1; higher = less ribozyme self-cleavage, higher mRNA level; conditions: without (6R,S)-folinic acid; ligand present: no
# Summary of the method: (§1)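 Library plasmids carrying ribozyme switches linked to mCherry, or to eGFP in some ligand experiments, were transfected into HEK293T at 4 µg per 6-well well, with any ligand added 1 h earlier. Seventy-two hours on, total RNA was extracted with EDTA and reverse-transcribed, amplified, barcoded and sequenced. RNA level was RNA over DNA reads normalized to a spiked-in non-cleaving sequence or to the top sequences, then scaled and log-transformed. The top set was 25 sequences, the transform was ×100 and log10, and sequences needed ≥100 DNA reads.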
# [2] = variants of: B1; assay: normalized RNA/DNA level with ligand (relative to sTRSVctl = 100) (log10 (% of sTRSVctl)); HEK293T overexpressing SLC46A1; ligand concentration (+) RNA-Seq: 6 mM; higher = less ribozyme self-cleavage, higher mRNA level; conditions: with (6R,S)-folinic acid; ligand present: yes
# Summary of the method: as §1
Variant,normalized RNA/DNA level without ligand (log10) [1],normalized RNA/DNA level with ligand (log10) [2]
GCUGUCACCGGUGCUUGGUACGUUAUAUUCAGCCGGUCUGAUGAGUCUCCGCUUAGACGAAACAGC [CCGCUU],2.04 ± 0.024,2.0508 ± 0.0014
GCUGUCACCGGUGCUUGGUACGUUAUAUUCAGCCGGUCUGAUGAGUCUCCGCUAAGACGAAACAGC [CCGCUA],2.01 ± 0.019,2.02 ± 0.043
GCUGUCACCGGUGCUUGGUACGUUAUAUUCAGCCGGUCUGAUGAGUCUCCGCUGAGACGAAACAGC [CCGCUG],2.047 ± 0.0097,2.067 ± 0.012
GCUGUCACCGGUGCUUGGUACGUUAUAUUCAGCCGGUCUGAUGAGUCUCCGCUCAGACGAAACAGC [CCGCUC],2.112 ± 0.0092,2.09 ± 0.081
GCUGUCACCGGUGCUUGGUACGUUAUAUUCAGCCGGUCUGAUGAGUCUGCGCCUAGACGAAACAGC [GCGCCU],2.1 ± 0.023,2.09 ± 0.047
GCUGUCACCGGUGCUUGGUACGUUAUAUUCAGCCGGUCUGAUGAGUCUGCGCCGAGACGAAACAGC [GCGCCG],2.059 ± 0.0092,2.046 ± 0.0097
GCUGUCACCGGUGCUUGGUACGUUAUAUUCAGCCGGUCUGAUGAGUCUUCGCUCAGACGAAACAGC [UCGCUC],2.04 ± 0.028,2.04 ± 0.059
GCUGUCACCGGUGCUUGGUACGUUAUAUUCAGCCGGUCUGAUGAGUCUUCGCUAAGACGAAACAGC [UCGCUA],2.021 ± 0.015,2.07 ± 0.035
GCUGUCACCGGUGCUUGGUACGUUAUAUUCAGCCGGUCUGAUGAGUCUUCGCUUAGACGAAACAGC [UCGCUU],2.033 ± 0.019,2.01 ± 0.081
GCUGUCACCGGUGCUUGGUACGUUAUAUUCAGCCGGUCUGAUGAGUCUUCGCUGAGACGAAACAGC [UCGCUG],2.01 ± 0.021,2.06 ± 0.037
GCUGUCACCGGUGCUUGGUACGUUAUAUUCAGCCGGUCUGAUGAGUCUGCGCUGAGACGAAACAGC [GCGCUG],2.11 ± 0.022,2.1 ± 0.024
GCUGUCACCGGUGCUUGGUACGUUAUAUUCAGCCGGUCUGAUGAGUCUGCGCUUAGACGAAACAGC [GCGCUU],2.053 ± 0.018,2.048 ± 0.015
GCUGUCACCGGUGCUUGGUACGUUAUAUUCAGCCGGUCUGAUGAGUCUGCGCUCAGACGAAACAGC [GCGCUC],2.05 ± 0.049,2.01 ± 0.043
GCUGUCACCGGUGCUUGGUACGUUAUAUUCAGCCGGUCUGAUGAGUCUACGGAAAGACGAAACAGC [ACGGAA],1.965 ± 0.0049,2.024 ± 0.0076
GCUGUCACCGGUGCUUGGUACGUUAUAUUCAGCCGGUCUGAUGAGUCUCCGGACAGACGAAACAGC [CCGGAC],2.05 ± 0.0016,2.042 ± 0.016
GCUGUCACCGGUGCUUGGUACGUUAUAUUCAGCCGGUCUGAUGAGUCUCCGGAAAGACGAAACAGC [CCGGAA],2.005 ± 0.0036,2.01 ± 0.052
GCUGUCACCGGUGCUUGGUACGUUAUAUUCAGCCGGUCUGAUGAGUCUUCGCGGAGACGAAACAGC [UCGCGG],2.067 ± 0.0045,2.084 ± 0.02
GCUGUCACCGGUGCUUGGUACGUUAUAUUCAGCCGGUCUGAUGAGUCUUCGCGAAGACGAAACAGC [UCGCGA],2.0026 ± 0.0006,2.02 ± 0.068
GCUGUCACCGGUGCUUGGUACGUUAUAUUCAGCCGGUCUGAUGAGUCUUCGCGUAGACGAAACAGC [UCGCGU],2.033 ± 0.0037,2.04 ± 0.032
GCUGUCACCGGUGCUUGGUACGUUAUAUUCAGCCGGUCUGAUGAGUCUUCGCGCAGACGAAACAGC [UCGCGC],2.046 ± 0.014,2.03 ± 0.03
GCUGUCACCGGUGCUUGGUACGUUAUAUUCAGCCGGUCUGAUGAGUCUGCGCGCAGACGAAACAGC [GCGCGC],2.055 ± 0.0073,2.001 ± 0.011

Variant,normalized RNA/DNA level without ligand (log10) [1],normalized RNA/DNA level with ligand (log10) [2]
GCUGUCACCGGUGCUUGGUACGUUAUAUUCAGCCGGUCUGAUGAGUCUGCGCGAAGACGAAACAGC [GCGCGA],2.047 ± 0.011,2.052 ± 0.018
GCUGUCACCGGUGCUUGGUACGUUAUAUUCAGCCGGUCUGAUGAGUCUGCGCGUAGACGAAACAGC [GCGCGU],2.055 ± 0.011,2.04 ± 0.056
GCUGUCACCGGUGCUUGGUACGUUAUAUUCAGCCGGUCUGAUGAGUCUGCGCGGAGACGAAACAGC [GCGCGG],2.064 ± 0.0074,2.03 ± 0.031
GCUGUCACCGGUGCUUGGUACGUUAUAUUCAGCCGGUCUGAUGAGUCUCCGCCGAGACGAAACAGC [CCGCCG],2.06 ± 0.024,2.08 ± 0.03
GCUGUCACCGGUGCUUGGUACGUUAUAUUCAGCCGGUCUGAUGAGUCUCCGCCUAGACGAAACAGC [CCGCCU],2.087 ± 0.0066,2.08 ± 0.03
GCUGUCACCGGUGCUUGGUACGUUAUAUUCAGCCGGUCUGAUGAGUCUUCGCCUAGACGAAACAGC [UCGCCU],2.08 ± 0.043,2.082 ± 0.016
GCUGUCACCGGUGCUUGGUACGUUAUAUUCAGCCGGUCUGAUGAGUCUUCGCCGAGACGAAACAGC [UCGCCG],2.016 ± 0.0047,2.05 ± 0.032
GCUGUCACCGGUGCUUGGUACGUUAUAUUCAGCCGGUCUGAUGAGUCUACGCUAAGACGAAACAGC [ACGCUA],2.013 ± 0.018,2.03 ± 0.06
GCUGUCACCGGUGCUUGGUACGUUAUAUUCAGCCGGUCUGAUGAGUCUACGCUGAGACGAAACAGC [ACGCUG],2.015 ± 0.0048,2.057 ± 0.015
GCUGUCACCGGUGCUUGGUACGUUAUAUUCAGCCGGUCUGAUGAGUCUACGCUCAGACGAAACAGC [ACGCUC],2.053 ± 0.015,2.05 ± 0.036
GCUGUCACCGGUGCUUGGUACGUUAUAUUCAGCCGGUCUGAUGAGUCUGCGGAAAGACGAAACAGC [GCGGAA],1.978 ± 0.007,2.02 ± 0.048
GCUGUCACCGGUGCUUGGUACGUUAUAUUCAGCCGGUCUGAUGAGUCUACGCGUAGACGAAACAGC [ACGCGU],2.022 ± 0.0046,2.02 ± 0.018
GCUGUCACCGGUGCUUGGUACGUUAUAUUCAGCCGGUCUGAUGAGUCUACGCGCAGACGAAACAGC [ACGCGC],1.997 ± 0.0046,2.01 ± 0.059
GCUGUCACCGGUGCUUGGUACGUUAUAUUCAGCCGGUCUGAUGAGUCUACGCGAAGACGAAACAGC [ACGCGA],1.986 ± 0.011,2.042 ± 0.0061
GCUGUCACCGGUGCUUGGUACGUUAUAUUCAGCCGGUCUGAUGAGUCUACGCGGAGACGAAACAGC [ACGCGG],1.965 ± 0.004,2.03 ± 0.066
GCUGUCACCGGUGCUUGGUACGUUAUAUUCAGCCGGUCUGAUGAGUCUACGCCGAGACGAAACAGC [ACGCCG],2.0192 ± 0.00023,2.029 ± 0.013
GCUGUCACCGGUGCUUGGUACGUUAUAUUCAGCCGGUCUGAUGAGUCUCCGCGGAGACGAAACAGC [CCGCGG],2.031 ± 0.0025,2.0168 ± 0.0019
GCUGUCACCGGUGCUUGGUACGUUAUAUUCAGCCGGUCUGAUGAGUCUCCGCGAAGACGAAACAGC [CCGCGA],2.06 ± 0.024,2.06 ± 0.034
GCUGUCACCGGUGCUUGGUACGUUAUAUUCAGCCGGUCUGAUGAGUCUCCGCGCAGACGAAACAGC [CCGCGC],2.067 ± 0.012,2.05 ± 0.068
GCUGUCACCGGUGCUUGGUACGUUAUAUUCAGCCGGUCUGAUGAGUCUCCGCGUAGACGAAACAGC [CCGCGU],2.05 ± 0.026,2.054 ± 0.015
